Experiments:
[1] = NETTER-2 serious adverse events in the randomized treatment period (Safety Set)
Source text: All adverse events (AEs), whether or not spontaneously reported by the patient, will be recorded starting from the signing of the ICF until the end of the Treatment Phase. Safety summaries (tables, figures) include only data from the on-treatment period with the exception of baseline data which will also be summarized where appropriate (e.g. change from baseline summaries). In addition, a separate summary for death including on treatment and post treatment deaths will be provided. In particular, summary tables for adverse events (AEs) will summarize only on-treatment events, with a start date during the on-treatment period (treatment-emergent AEs).
Separate summaries will be provided for study medication related adverse events, death, serious adverse events, other significant adverse events leading to discontinuation and adverse events leading to dose adjustment.

[2] = in vivo; cited from earlier work
[3] = NETTER-2 subject disposition: discontinuation of randomized treatment phase (Full Analysis Set); type: in vivo, human
Source text: The discontinuation of either study treatments in both arms (Lutathera or octreotide long-acting) is not a reason for patient's withdrawal either from the clinical/tumor assessments until tumor progression, or for early study termination. However, in case of a patient's withdrawal from the clinical/tumor assessments or early study termination (based on either the patient's or the Investigator's decision), patients will undergo all exams scheduled for the End of Treatment (EOT) visit.
The Full Analysis Set (FAS) comprises all subjects to whom study treatment has been assigned by randomization. According to the intent to treat principle, subjects will be analyzed according to the treatment and strata they have been assigned to during the randomization procedure.

[4] = system: Grade 2 and Grade 3 advanced GEP-NET; assay: NETTER-2 Progression-Free Survival (PFS), central review using RECIST 1.1; type: in vivo, human; settings: for Kaplan-Meier event-free estimates (95% CI): PFS
Experimental: The primary efficacy end-point is PFS as measured by objective tumor response, which is determined by RECIST criteria, Version 1.1 (Eisenhauer, et al., 2009). Tumor response will be assessed locally and centrally.
It is recommended that for each patient identical acquisition and reconstruction protocols be used at all time-points. Central, blinded, real-time IRC (Independent Review Committee) assessment will be conducted for determining progressive disease. Changes from randomization date will be assessed at week 16±1, week 24±1 and then every 12±1 weeks until the PFS primary analysis End-Point has been reached, then until Week 72 after randomization, unless the patient progresses or dies.
The primary endpoint of the study is progression-free survival (PFS), defined as the time from the date of randomization to the date of the first documented progression or death due to any cause. PFS will be assessed via central review according to RECIST 1.1.
The stratification will be based on following randomization stratification factors (grade: G2 vs. G3; and tumor origin: pNET vs other origin).
Analyses will be based on the FAS population according to the randomized treatment group and strata assigned at randomization. The PFS distribution will be estimated using the Kaplan-Meier method, and Kaplan-Meier curves, median and associated 95% confidence intervals will be presented for each treatment group. The hazard ratio for PFS will be calculated, along with its 95% confidence interval, from a stratified Cox model using the same stratification factors as for the log-rank test.

[5] = All grades, randomized treatment period, Safety Set
[6] = Grade >=3, randomized treatment period, Safety Set
[7] = randomized treatment period, Safety Set
[8] = central review, RECIST 1.1, Full Analysis Set

C[C@@H](O)[C@H](NC(=O)[C@@H]1CSSC[C@H](NC(=O)[C@@H](Cc2ccccc2)NC(=O)CN2CCN(CC(=O)[O-])CCN(CC(=O)[O-])CCN(CC(=O)[O-])CC2)C(=O)N[C@@H](Cc2ccc(O)cc2)C(=O)N[C@H](Cc2c[nH]c3ccccc23)C(=O)N[C@@H](CCCCN)C(=O)N[C@@H]([C@@H](C)O)C(=O)N1)C(=O)O.[177Lu+3] [Lutathera, ^177Lu-DOTA^0-Tyr^3-Octreotate]
0 n (%): Fatal SAEs Related to Amino Acids [1, 5] | Fatal SAEs Related to Any Treatment [1, 5] | Fatal SAEs Related to Lutathera [1, 5] | Fatal SAEs Related to Octreotide [1, 5] | SAEs Related to Amino Acids [1, 5] | SAEs Related to Octreotide [1, 5] | Serious adverse event: Abdominal sepsis [1, 5] | Serious adverse event: Acute coronary syndrome [1, 5] | Serious adverse event: Acute kidney injury [1, 5] | Serious adverse event: Carcinoid heart disease [1, 5] | Serious adverse event: Carcinoid syndrome [1, 5] | Serious adverse event: Femur fracture [1, 5] | Serious adverse event: Gastroenteritis [1, 5] | Serious adverse event: Generalised oedema [1, 5] | Serious adverse event: Hip fracture [1, 5] | Serious adverse event: Hyperglycaemia [1, 5] | Serious adverse event: Hypertension [1, 5] | Serious adverse event: Hypoalbuminaemia [1, 5] | Serious adverse event: Jaundice [1, 5] | Serious adverse event: Lower gastrointestinal haemorrhage [1, 5] | Serious adverse event: Metabolic encephalopathy [1, 5] | Serious adverse event: Pleurisy [1, 5] | Serious adverse event: Tumour lysis syndrome [1, 5] | Fatal SAEs Related to Amino Acids [1, 6] | Fatal SAEs Related to Any Treatment [1, 6] | Fatal SAEs Related to Lutathera [1, 6] | Fatal SAEs Related to Octreotide [1, 6] | SAEs Related to Amino Acids [1, 6] | SAEs Related to Octreotide [1, 6] | Serious adverse event: Abdominal sepsis [1, 6] | Serious adverse event: Acute coronary syndrome [1, 6] | Serious adverse event: Acute kidney injury [1, 6] | Serious adverse event: Ascites [1, 6] | Serious adverse event: Carcinoid heart disease [1, 6] | Serious adverse event: Carcinoid syndrome [1, 6] | Serious adverse event: Diarrhoea [1, 6] | Serious adverse event: Femur fracture [1, 6] | Serious adverse event: Gastroenteritis [1, 6] | Serious adverse event: Generalised oedema [1, 6] | Serious adverse event: Hip fracture [1, 6] | Serious adverse event: Hyperglycaemia [1, 6] | Serious adverse event: Hypertension [1, 6] | Serious adverse event: Hypoalbuminaemia [1, 6] | Serious adverse event: Intestinal obstruction [1, 6] | Serious adverse event: Jaundice [1, 6] | Serious adverse event: Lower gastrointestinal haemorrhage [1, 6] | Serious adverse event: Metabolic encephalopathy [1, 6] | Serious adverse event: Oedema peripheral [1, 6] | Serious adverse event: Pleurisy [1, 6] | Serious adverse event: Tumour lysis syndrome [1, 6] | SAE with fatal outcome: Diarrhoea [1, 7] | SAE with fatal outcome: Tumor Lysis syndrome [1, 7]
20.4%: Serious AEs ([1]; randomized treatment period)
24 (16.3) n (%): SAEs [1, 6] | Serious adverse events: Number of subjects with at least one event [1, 6]
3 (2.0) n (%): Fatal SAEs [1, 5] | Fatal SAEs [1, 6] | SAEs with fatal outcome [1, 7] | SAEs with fatal outcome reported in subjects with primary reason for death = Disease under Study [1, 7]
49.8 (38.5, 60.1) %: Kaplan-Meier event-free estimates (95% CI) ([4]; 24 months, Full Analysis Set)
80.7 (72.9, 86.4) %: Kaplan-Meier event-free estimates (95% CI) ([4]; 12 months, Full Analysis Set)
5 (3.4) (%): Incidence of SAEs: Small intestinal obstruction ([1]; most frequent SAE, summary table)
2 (1.4) n (%): Serious adverse event: Abdominal pain [1, 5] | Serious adverse event: Anaemia [1, 5] | Serious adverse event: Blood bilirubin increased [1, 5] | Serious adverse event: Gastrointestinal stoma complication [1, 5] | Serious adverse event: Pyrexia [1, 5] | Serious adverse event: Abdominal pain [1, 6]
1 (0.7) n (%): Serious adverse event: Ascites [1, 5] | Serious adverse event: Diarrhoea [1, 5] | Serious adverse event: Intestinal obstruction [1, 5] | Serious adverse event: Oedema peripheral [1, 5] | Serious adverse event: Anaemia [1, 6] | Serious adverse event: Blood bilirubin increased [1, 6] | Serious adverse event: Pyrexia [1, 6] | SAE with fatal outcome: Blood bilirubin increased [1, 7] | SAE with fatal outcome: Dyspnoea [1, 7] | SAE with fatal outcome: Intestinal perforation [1, 7]
less than 10%: Clinically significant myelosuppression [2]
1%: grade 3 or 4 neutropenia [2]
9%: grade 3 or 4 lymphopenia [2]
85.6 (78.6, 90.5) %: Kaplan-Meier event-free estimates (95% CI) ([4]; 9 months, Full Analysis Set)
NE (29.0, NE): PFS 75th percentile (95% CI) [4, 8]
47 (31.1) n (%): PFS events: Progression ([4]; Full Analysis Set)
5 (3.4) n (%): Serious adverse event: Small intestinal obstruction [1, 5]
27.8%: discontinuation for progressive disease ([3]; randomized period)
8 (5.3) n (%): Reason for End of Randomized Treatment Phase: Adverse Event ([3]; human, in vivo) | PFS events: Deaths ([4]; Full Analysis Set)
8 (5.4) n (%): SAEs Related to Any Treatment [1, 5] | SAEs Related to Lutathera [1, 5]
30 (20.4) n (%): SAEs [1, 5] | Serious adverse events: Number of subjects with at least one event [1, 5]
72%: estimated risk reduction (progression or death) ([4]; Lutathera arm compared to High-dose Octreotide arm)
95.8 (91.0, 98.1) %: Kaplan-Meier event-free estimates (95% CI) ([4]; 4 months, Full Analysis Set)
92.3 (86.6, 95.7) %: Kaplan-Meier event-free estimates (95% CI) ([4]; 6 months, Full Analysis Set)
14.1 (10.9, 17.0) months: PFS 25th percentile (95% CI) [4, 8]
5.4%: Serious AEs, Treatment-related ([1]; randomized treatment period)
42 (27.8) n (%): Reason for End of Randomized Treatment Phase: Progressive Disease ([3]; Full Analysis Set)
2%: grade 3 or 4 thrombocytopenia [2]
4 (2.6) n (%): Reason for End of Randomized Treatment Phase: Death ([3]; Full Analysis Set)
71.0 (61.9, 78.3) %: Kaplan-Meier event-free estimates (95% CI) ([4]; 15 months, Full Analysis Set)
55 (36.4) n (%): PFS Events ([4]; Full Analysis Set)
66.5 (56.9, 74.4) %: Kaplan-Meier event-free estimates (95% CI) ([4]; 18 months, Full Analysis Set)
36.1 (22.3, 50.1) %: Kaplan-Meier event-free estimates (95% CI) ([4]; 30 months, Full Analysis Set)
no evidence of renal toxicities: renal toxicities within the period of observation [2]
5.3%: Treatment discontinuation due to adverse event ([3]; human, in vivo)
6 (4.1) n (%): SAEs Related to Any Treatment [1, 6] | SAEs Related to Lutathera [1, 6]

Reference: patent US20250099634A1, “METHOD OF TREATING CANCER” (Novartis AG, priority 2023, published 2025)
